Substrate: CCCC(=O)Oc1ccc([N+](=O)[O-])cc1
Assay: purified protein
Format: biochemical, unidentified prokaryotic organism
Conditions: 50 mM phosphate buffer pH 8.0, isopropanol as substrate solvent, temperature not stated

B1: LCC^ICCG (unidentified prokaryotic organism; D238C/F243I/S283C/Y127G) (protein)
chain: QSNPYQRGPNPTRSALTADGPFSVATYTVSRLSVSGFGGGVIYYPTGTSLTFGGIAMSPGYTADASSLAWLGRRLASHGFVVLVINTNSRFDGPDSRASQLSAALNYLRTSSPSAVRARLDANRLAVAGHSMGGGGTLRIAEQNPSLKAAVPLTPWHTDKTFNTSVPVLIVGAEADTVAPVSQHAIPFYQNLPSTTPKVYVELCNASHIAPNSNNAAISVYTISWMKLWVDNDTRYRQFLCNVNDPALCDFRTNNRHCQ
notes: ICCG variant of LCC, synthetic gene in pET-29a, C-terminal His6-tag, E. coli BL21(DE3), Ni-NTA purified
B1 was tested, and the Km was 126.3 µM, the kcat was 67.5 s⁻¹ and the kcat/Km was 534000 M⁻¹ s⁻¹.

B2: LCC^ICCG-ChBD (unidentified prokaryotic organism; D238C/F243I/S283C/Y127G) (protein)
chain: B1 chain
notes: C-terminal His6-tag; pET-29a, E. coli BL21(DE3), Ni-NTA purified; Chitinolyticbacter meiyuanensis SYBC-H1
B2 was tested, and the Km was 141.8 µM, the kcat was 68.4 s⁻¹ and the kcat/Km was 404000 M⁻¹ s⁻¹.

Source: article PMC8715031, “Fusion of Chitin-Binding Domain From Chitinolyticbacter meiyuanensis SYBC-H1 to the Leaf-Branch Compost Cutinase for Enhanced PET Hydrolysis” (Frontiers in Bioengineering and Biotechnology, 2021)
